The text below walks through data of PMC8524320.

No end group written: not given here. *: point of attachment. TAMRA = 5-carboxytetramethylrhodamine, CN(C)c1ccc2c(-c3ccc(C(=O)*)cc3C(=O)[O-])c3ccc(N(C)C)cc3[o+]c2c1

Assay [1] has as its target HLA-A*68:02^N86Q on the surface of HeLaM-HLA-ABC^KO cells (human). Kind of assay: flow cytometry on cells; competition: surface MHC-I pre-loaded with 10 nM fluorescent peptide in the presence of TAPBPR (100 nM for HLA-A*68:02 WT, 10 nM for N86Q and S88R), washed, then 0, 100 nM or 1000 nM recombinant TAPBPR for 30 min; loss of bound peptide against no TAPBPR. A general note: Flow cytometry measures light scatter and fluorescence of single cells or particles in a stream.

Assay [2] has as its target HLA-A*68:02^WT on the surface of HeLaM-HLA-ABC^KO cells (human). The description is as above.
Assay [3] deals with HLA-A*68:02^S88R on the surface of HeLaM-HLA-ABC^KO cells (human). Described as above.
Assay [4] concerns the target HLA-A*68:02^N86Q on the surface of HeLaM-HLA-ABC^KO cells (human). Kind of assay: flow cytometry on cells; competition: cells treated with 1 μM soluble TAPBPR for 30 min at 37 °C, washed, then 0, 10 nM or 100 nM high-affinity peptide for 15 min (methods: 30 min); loss of bound TAPBPR (PeTe-4) against no peptide.
The target of assay [5] is HLA-A*68:02^WT on the surface of HeLaM-HLA-ABC^KO cells (human). The description is as above.
Assay [6] addresses HLA-A*68:02^S88R on the surface of HeLaM-HLA-ABC^KO cells (human). The description is as above.

As to “recombinant soluble TAPBPR^WT (lumenal domains, C-terminal His6) (from UniProt Q9BX59 19-405) (domain or fragment)”, the % loss of pre-loaded YVVPFVAK*V in the presence of TAPBPR (up to) in assay [1] is 30%; in assay [3], 50%. Moreover, the results for the % of pre-loaded ETVSK*QSNV dissociated by 100 nM TAPBPR in assay [1] and in assay [3] were 50% and 75%, respectively. The % of pre-loaded ETVSK*QSNV dissociated by 1 μM TAPBPR in assay [1] is 85%; in assay [2] it was 30%; in assay [3], above 90%.

In the case of ETVSK(TAMRA)QSNV [ETVSK*QSNV (TAMRA-labelled peptide specific for HLA-A*68:02)], the % of bound TAPBPR dissociated by the peptide in assay [4] was 70%; in assay [5], 85%; in assay [6], 60%.

As for YVVPFVAK(TAMRA)V [YVVPFVAK*V (TAMRA-labelled peptide specific for HLA-A*68:02)], the % of bound TAPBPR displaced by the peptide in assay [4] worked out at 86%; in assay [5], 92%; in assay [6] it was 83%.
